From patent US12686712B2, “Antibody, related use, pharmaceutical composition including method for diagnosing fungal infections, fungal infection diagnosis kit and method for treating fungal infections” (priority 2020, dated 2026)

Columns and labels:
C. neoformans H99 = assay: Biofilm development, XTT reduction trial; type: cell-based, Cryptococcus neoformans; details: AcM 25 μg/ml, 48 hours at 37° C., vs fungus without treatment, p<0.05
Method: C. neoformans (H99 and Cap67) and Candida albicans were cultivated in Sabouraud media for 24 hours at 30° C. Cellular suspensions were centrifuged for 5 minutes at 3000 g, washed 3 times in PBC and suspended in minimum media (20 mg/ml thiamin, 30 mm glucose, 26 mM glycine, 20 mM MgSO4, and 58.8 mM KH2PO4). Then, they were added to 96-well plates (100 μl/well—1×10^6 células/ml) and cultivated for 48 hours at 37° C. at presence of AcM (HC6/DD11 and AF1/CC5) and AcM anti-GXM 18B7 (only to H99) at 25 μg/ml concentration, keeping under agitation for 30 minutes, for AcM total homogenization with fungi. As control, drug AmB was used at 1 μg/ml concentration.
Two analysis systems were performed: in the first, cells were washed, so that non-adhering cells were removed and only cells bonded to biofilm under development remained; in the second system, cells were not washed and all cells adhered or not to substrate were quantified.
Viable cell metabolic activity in both trials was assessed by the method based on decrease of XTT (2-methoxy-4-nitro-5-sulfophenyl)-5-[(phenylamino) carbonyl]-2H-tetrazolium hydroxide) in spectrophotometer at 492 nm of wavelength.
AcMs were tested (25 μg/ml) against three fungus species (C. albicans, C. neoformans—H99—and acapsular mutant of C. neoformans—Cap67), with control by AcM anti-GXM 18B7 (25 μg/ml) only to H99. In the first assay (FIGS. 14A and B), cellular suspensions were washed to remove non-adhering cells to substrate. […] In second assay (FIGS. 14C and D), cellular suspensions were not washed, and again AcM inhibited biofilm development (p<0.05) compared to cell not treated with antibodies. In both assays, cell growth was observed.
AcMs were compared to AcM anti-GXM 18B7 concerning biofilm development inhibition.

C. neoformans = assay: Melanization trial (L-DOPA); type: cell-based, Cryptococcus neoformans; details: concentrations lower than 6.2 μg/ml; p>0.05
Method: C. neoformans cultivation was performed as paragraph and cellular suspension (1×10^6 cells/ml) was cultivated for 72 hours in minimum media supplemented with 1 mM of L-DOPA in 96-well plate of U-shape bottom. Antibodies HC6/DD11 and AF1/CC5 were added to minimum media within 25 to 0.05 μg/ml concentration range. The plate was centrifuged and pigment development quantification was defined densitometrically upon image scanning by iBright FL1000 Invitrogen equipment.
AcM HC6/DD11 e AF1/CC5 established concentrations were 0.2 to 25 μg/ml. L-DOPA was used with substrate to melanization.
Pigmentation in C. neoformans was assessed through brown to black sedimentation observation in 96-well plate bottom. To document pigmentation or inhibition, plates were photographed over white surfaces (clear bottom), to enable differentiation between pigmented and non-pigmented populations. It shall be noted that every AcM dose presents fungal growth, however with negative pigmentation or partial inhibition.

C. neoformans (H99) = assay: Indirect ELISA against intact cells using poly-L-Lysine (PL); type: binding, Cryptococcus neoformans; details: 10^4 and 10^5 cells/ml
Method: For this test, C. neoformans (H99), Candida albicans, Giardia lamblia, human lung line cell A549 (ATCC), Escherichia coli and Staphylococcus aureus. Cells were washed in PBS three times and suspended at 10^7 cell/ml density in poly-L-Lysine (5 μg/ml in PBS) for adherence at night at 4° C. The next day, plates were blocked with PBS/BSA 5% and incubated for 1 hour at 37° C., then they are incubated for 1 hour at 37° C. with anti-chitooligomer AcM at 50 μg/ml concentration and diluted at 5 μg/ml. Then, washing with PBS/Tween 0.05% was performed for 3 times and anti-IgM murine peroxidase was added diluted 1:5000 and incubated for 2 hours at 37° C. Plates were washed again and TMB was added and incubated for 30 minutes at 37° C.
Reaction was stopped with HCl 1 N and reading with spectrophotometer at 450 nm. After this trial, seriated dilutions were performed at density of cells 10^7 until 10 cells/ml to fungi and 10^7 until 10^4 cells/ml to other cellular types and tested of AcM anti-chitooligomer at 25 μg/ml concentration, followed by the same procedures abovementioned. […]
In this trial, 10^7 cell/ml of C. albicans were used to perform an absorbance curve, in which it was observed that there was a 25 μg/ml concentration reliable signal of both AcM, as above such value the curve starts to enter in plateau, as provided in FIG. 9. […]

C. neoformans strain H99 = assay: Survival trial, lethal i.p. challenge; type: in vivo, Balb/C line mice; details: synergic group: AcM 85 μg/animal with AmB 0.25 mg/kg
Method: Balb/C line mice (n=7) were lethally challenged via i.p. with 10^5 cells in PBS of C. neoformans (H99) and treated 2 hours later with 100 μl of AmB (2.5 mg/kg and 0.25 mg/kg), 100 μl of AcM (85 μg/ml) and 100 μl of AcM and AmB combined solution (0.25 mg/kg). Control animals were challenged only by C. neoformans (H99) or only with 100 μl of a solution of PBS, AmB (2.5 mg/kg) or AcM (85 μg/ml) without fungus (adapted from Liedke et al.). Survival rate was achieved and analysis was extended up to 90 days after infection, presenting statistical value with p<0.005.
Mice were lethally challenged with inoculant i.p. of 1×10^5 cells of yeast C. neoformans strain H99. After 2 hours, they were treated with PBS (negative control), 85 μg/animal of AcM (HC6/DD11) in isolate form, 0.25 or 2.5 mg/kg of AmB in isolate form, and in synergic form, AcM keeping test concentrations. Treatments were repeated for another two times, with 10-day interval.

B1: HC6/DD11: murine IgM monoclonal antibody against chitooligomers (chitotriose); VH SEQ ID NO: 15, VL SEQ ID NO: 16 (antibody, listed as Mus musculus, V domains shown)
VH: STGQVKLEESGGGLVQPGGSRKLSCAASGFTFSDYGMAWVRQAPGKGPEWVAFISNLAYSIYYADTVTGRFTISRENAKNTLYLEMSSLRSEDTAMYYCARDYYGSSYWYFDVWGAGTTVTAPC
VL: ATNSCISRGEVTITCSASSSVSYMHWFQQKPGTSPKLWIYSTSNLASGVPARFSGSGSGTSYSLTISRMEAEDAATYYCQQRSSYPLTFGAGTKLELKRADAAPTVSLET
C. neoformans H99; non-washed cells
  biofilm development (XTT reduction): reduced biofilm development significantly
C. neoformans H99; washed cells
  biofilm development (XTT reduction): reduced biofilm development significantly
C. neoformans
  melanization in lower concentrations: not significant inhibition
C. neoformans (H99)
  ELISA signal in cell saturation curve: slightly more sensitive
C. neoformans strain H99; followed up to 90 days
  death of infected animals: did not die
C. neoformans strain H99; up to 90 days, n=7
  survival: 100%
